Blank lines part the entries; values can stand above or below the sequence they belong to.
Experiments:
[1] = target: HLA-A*01:01; experiment: IEDB peptide-MHC binding, purified MHC/direct/fluorescence; filed as Kd, often an IC50 or EC50 that approximates it; ≥ and ≤ were set here for values at or beyond the usual limits of such assays
[2] = target: HLA-A*02:01; experiment: as above
[3] = target: HLA-A*02:06; experiment: as above; conditions: source organism: Giardia lamblia ATCC 50803
[4] = target: HLA-A*02:11; experiment: as above; conditions: source organism: Giardia lamblia ATCC 50803
[5] = target: HLA-A*02:12; experiment: as above; conditions: source organism: Giardia lamblia ATCC 50803
[6] = target: HLA-A*02:16; experiment: as above; conditions: source organism: Giardia lamblia ATCC 50803
[7] = target: HLA-A*02:19; experiment: as above; conditions: source organism: Giardia lamblia ATCC 50803
[8] = target: HLA-A*03:01; experiment: as above
[9] = target: HLA-A*11:01; experiment: as above
[10] = target: HLA-A*24:02; experiment: as above; conditions: source organism: Giardia lamblia ATCC 50803
[11] = target: HLA-A*26:01; experiment: as above
[12] = target: HLA-A*31:01; experiment: as above
[13] = target: HLA-A*69:01; experiment: as above
[14] = target: HLA-B*07:02; experiment: as above
[15] = target: HLA-B*08:02; experiment: as above; conditions: source organism: Giardia lamblia ATCC 50803
[16] = target: HLA-B*15:01; experiment: as above
[17] = target: HLA-B*18:01; experiment: as above; conditions: source organism: Giardia lamblia ATCC 50803
[18] = target: HLA-B*27:05; experiment: as above
[19] = target: HLA-B*40:01; experiment: as above
[20] = target: HLA-B*44:02; experiment: as above; conditions: source organism: Giardia lamblia ATCC 50803
[21] = target: HLA-B*46:01; experiment: as above; conditions: source organism: Giardia lamblia ATCC 50803
[22] = target: HLA-B*58:01; experiment: as above
[23] = target: HLA-A*02:50; experiment: IEDB peptide-MHC binding, purified MHC/competitive/fluorescence; filed as Kd, often an IC50 or EC50 that approximates it; ≥ and ≤ were set here for values at or beyond the usual limits of such assays
[24] = target: HLA-A*02:01; experiment: as above
[25] = target: HLA-A*02:03; experiment: as above
[26] = target: HLA-A*02:11; experiment: as above
[27] = target: HLA-A*02:12; experiment: as above
[28] = target: HLA-A*02:16; experiment: as above; conditions: source organism: Burkholderia vietnamiensis G4
[29] = target: HLA-A*02:19; experiment: as above
[30] = target: HLA-A*03:01; experiment: as above
[31] = target: HLA-A*23:01; experiment: as above
[32] = target: HLA-A*24:03; experiment: as above
[33] = target: HLA-A*26:01; experiment: as above
[34] = target: HLA-A*29:02; experiment: as above
[35] = target: HLA-B*15:01; experiment: as above
[36] = target: HLA-B*18:01; experiment: as above
[37] = target: HLA-B*27:03; experiment: as above
[38] = target: HLA-B*39:01; experiment: as above
[39] = target: HLA-B*46:01; experiment: as above
[40] = target: HLA-B*51:01; experiment: as above
[41] = target: HLA-B*57:01; experiment: as above
[42] = target: HLA-A*68:02; experiment: as above; conditions: source organism: Bacillus anthracis str. Ames
[43] = target: HLA-A*69:01; experiment: as above; conditions: source organism: Bacillus anthracis str. Ames
[44] = target: HLA-B*15:17; experiment: as above; conditions: source organism: Bacillus anthracis str. Ames
[45] = target: HLA-A*24:03; experiment: IEDB peptide-MHC binding, purified MHC/direct/fluorescence; filed as Kd, often an IC50 or EC50 that approximates it; ≥ and ≤ were set here for values at or beyond the usual limits of such assays; conditions: source organism: Klebsiella pneumoniae
[46] = target: HLA-B*08:01; experiment: as above; conditions: source organism: Klebsiella pneumoniae
[47] = source organism: Giardia lamblia ATCC 50803
[48] = source organism: Burkholderia vietnamiensis G4
[49] = source organism: Bacillus anthracis str. Ames
[50] = source organism: Klebsiella pneumoniae

Sequence: YLDMVLAFL
Kd [1, 47]: ≥ 20 µM
Kd [2, 47]: 0.0185 µM
Kd [3]: ≤ 0.001 µM
Kd [4]: ≤ 0.001 µM
Kd [5]: ≤ 0.001 µM
Kd [6]: ≤ 0.001 µM
Kd [7]: ≤ 0.001 µM
Kd [8, 47]: ≥ 20 µM
Kd [9, 47]: ≥ 20 µM
Kd [10]: ≥ 20 µM
Kd [11, 47]: ≥ 20 µM
Kd [12, 47]: ≥ 20 µM
Kd [13, 47]: ≥ 20 µM
Kd [14, 47]: ≥ 20 µM
Kd [15]: ≥ 20 µM
Kd [16, 47]: ≥ 20 µM
Kd [17]: ≥ 20 µM
Kd [18, 47]: ≥ 20 µM
Kd [19, 47]: ≥ 20 µM
Kd [20]: ≥ 20 µM
Kd [21]: ≥ 20 µM
Kd [22, 47]: ≥ 20 µM
Kd [23, 47]: ≤ 0.0001 µM

Sequence: GVNDTEAHA
Kd [24, 48]: ≥ 20 µM
Kd [25, 48]: ≥ 20 µM
Kd [26, 48]: ≥ 20 µM
Kd [27, 48]: ≥ 20 µM
Kd [28]: 0.365 µM
Kd [29, 48]: ≥ 20 µM
Kd [30, 48]: ≥ 20 µM
Kd [31, 48]: ≥ 20 µM
Kd [32, 48]: ≥ 20 µM
Kd [33, 48]: ≥ 20 µM
Kd [34, 48]: ≥ 20 µM
Kd [35, 48]: ≥ 20 µM
Kd [36, 48]: ≥ 20 µM
Kd [37, 48]: ≥ 20 µM
Kd [38, 48]: ≥ 20 µM
Kd [39, 48]: ≥ 20 µM
Kd [40, 48]: ≥ 20 µM
Kd [41, 48]: ≥ 20 µM

Sequence: VILYFMYRK
Kd [24, 49]: ≥ 20 µM
Kd [25, 49]: ≥ 20 µM
Kd [26, 49]: ≥ 20 µM
Kd [27, 49]: ≥ 20 µM
Kd [29, 49]: ≥ 20 µM
Kd [30, 49]: 0.528 µM
Kd [31, 49]: ≥ 20 µM
Kd [32, 49]: ≥ 20 µM
Kd [33, 49]: ≥ 20 µM
Kd [34, 49]: ≥ 20 µM
Kd [42]: ≥ 20 µM
Kd [43]: ≥ 20 µM
Kd [35, 49]: ≥ 20 µM
Kd [44]: ≥ 20 µM
Kd [36, 49]: ≥ 20 µM
Kd [37, 49]: ≥ 20 µM
Kd [38, 49]: ≥ 20 µM
Kd [39, 49]: ≥ 20 µM
Kd [40, 49]: ≥ 20 µM
Kd [41, 49]: ≥ 20 µM

Kd [1, 50]: ≥ 20 µM
Kd [2, 50]: 1.18 µM
Kd [8, 50]: ≥ 20 µM
Kd [9, 50]: ≥ 20 µM
Kd [45]: ≥ 20 µM
Kd [11, 50]: ≥ 20 µM
Kd [12, 50]: ≥ 20 µM
Kd [13, 50]: ≥ 20 µM
Kd [14, 50]: ≥ 20 µM
Kd [46]: 7.89 µM
Kd [16, 50]: ≥ 20 µM
Kd [18, 50]: ≥ 20 µM
Kd [19, 50]: ≥ 20 µM
Kd [22, 50]: ≥ 20 µM
Kd [23, 50]: 0.0177 µM
Sequence: LLQEKYGLI

— the Immune Epitope Database (IEDB)
